Earlier results as cited in paper PMC10618199.

Target: insulin receptor site-2 (Homo sapiens) (UniProt P06213)

Chain of insulin (P01308 90-110): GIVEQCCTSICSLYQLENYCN

Kd: 400 nM
Substance: insulin (from UniProt P01308)
